Source: publication PMC7538550

Biological target: FMDV A2001 Argentina capsid protomer (VP0, VP3 and VP1 cut from the polyprotein P12A by protease 3C) (Foot-and-mouth disease virus, serotype A, A2001 Argentina strain)
Assay: sucrose gradient ultracentrifugation with ELISA of the fractions

Substance: FMDV A2001 Argentina capsid protomer (VP0, VP3 and VP1 cut from the polyprotein P12A by protease 3C) (complex)
- percent of the antigen present as complete empty capsids (75s): 84%
